Results from patent US20190105405A1 (MONASH UNIVERSITY, published 2019).
Substitutions are numbered along the chain they refer to. Each block holds one molecule with its values, some of them ahead of it.

Columns and labels:
[1] = target: PDIA1 (human) (UniProt P07237); assay: co-IP from LIM1215 lysates equalised for ADAM10, mass spectrometry
[2] = target: T1, AxxA mutant human ADAM10 (Cys594 and Cys597 to alanine) (human, UniProt O14672 214-748); assay: immunoprecipitation from lysates of ADAM10-/- MEFs transfected with AxxA mutant ADAM10, Western blot α-ADAM10
T1 construct: Expressed in ADAM10-/- mouse embryonic fibroblasts; tested in detergent lysates by IP; also called AXXA mutant ADAM10; AxxA ADAM10; not shown: turbo-myc tag of the OriGene construct
T1 sequence: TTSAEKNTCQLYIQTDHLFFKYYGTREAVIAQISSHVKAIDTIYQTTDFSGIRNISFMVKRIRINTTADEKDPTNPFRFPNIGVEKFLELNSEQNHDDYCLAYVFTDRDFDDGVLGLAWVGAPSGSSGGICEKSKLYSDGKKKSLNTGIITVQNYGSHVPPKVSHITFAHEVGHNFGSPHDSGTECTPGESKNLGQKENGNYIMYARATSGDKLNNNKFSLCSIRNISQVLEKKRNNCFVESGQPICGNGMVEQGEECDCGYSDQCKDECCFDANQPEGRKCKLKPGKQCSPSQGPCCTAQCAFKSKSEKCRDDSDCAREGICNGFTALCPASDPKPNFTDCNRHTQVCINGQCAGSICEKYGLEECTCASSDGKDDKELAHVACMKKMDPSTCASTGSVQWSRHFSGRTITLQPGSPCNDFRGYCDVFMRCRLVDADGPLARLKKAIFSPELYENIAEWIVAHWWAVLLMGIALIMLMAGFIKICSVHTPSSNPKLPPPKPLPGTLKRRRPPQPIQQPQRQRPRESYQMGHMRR

[3] = target: T2, recombinant huADAM10D+C protein (human, UniProt O14672 455-646); assay: SPR, BIAcore 3000, huADAM10D+C immobilised, antibody in solution
T2 construct: the whole entry is named here (the bovine construct was 455-646); also called huADAM10D+C domain protein; immobilised recombinant huADAM10D+C
T2 sequence: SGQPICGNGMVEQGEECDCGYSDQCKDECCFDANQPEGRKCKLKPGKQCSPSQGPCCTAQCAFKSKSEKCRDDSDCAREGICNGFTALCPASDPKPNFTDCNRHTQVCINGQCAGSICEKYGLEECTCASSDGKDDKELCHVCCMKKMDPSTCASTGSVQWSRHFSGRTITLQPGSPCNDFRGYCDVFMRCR

Sequence of PDIA1 (human) (P07237 18-508 limits assumed): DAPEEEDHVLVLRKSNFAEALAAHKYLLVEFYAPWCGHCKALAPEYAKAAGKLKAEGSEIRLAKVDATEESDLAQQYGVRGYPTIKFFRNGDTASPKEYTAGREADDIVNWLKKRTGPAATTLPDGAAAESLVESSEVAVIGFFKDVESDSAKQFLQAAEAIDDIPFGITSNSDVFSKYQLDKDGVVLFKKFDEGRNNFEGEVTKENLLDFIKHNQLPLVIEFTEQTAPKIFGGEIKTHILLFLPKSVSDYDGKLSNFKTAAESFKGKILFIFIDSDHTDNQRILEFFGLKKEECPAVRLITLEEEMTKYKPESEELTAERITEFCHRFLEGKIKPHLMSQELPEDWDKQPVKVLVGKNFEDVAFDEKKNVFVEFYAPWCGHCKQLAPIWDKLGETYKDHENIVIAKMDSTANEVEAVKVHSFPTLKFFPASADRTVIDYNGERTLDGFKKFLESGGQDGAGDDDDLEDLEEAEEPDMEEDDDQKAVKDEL

- fold more peptides detected in 8C7 IPs than in 4A11 IPs [1]: > 50 fold
Molecule: human ADAM10, endogenous full length (from UniProt O14672 214-748) (enzyme)

- binding result [2]: no binding
B1: anti-ADAM10 monoclonal antibody 8C7 (murine) (antibody, V domains shown)
VH: EVQLQQSGAELARPGSSVKLSCKASGYTFTNYWLQWVKQRTGQGLEWIGAIYPRDGDAKYSQKFKDKASLTVNESSSTAYMHLSALASEDSAVYYCARANYGLYYAMDRWGQGTSVTVSS
VL: DIFLTQSPANMSVSPGERVSFSCRASQNIGTNIHWYQQRTNGSPRLLIKYASESISGIPSRFSGSGSGTDFILSINTVESEDIAVYFCQQSNRWPFTFGSGTKLEVI
modifications: Alexa647 dye or coupling to Minileak beads in some experiments; not carried by the letters
notes: Murine whole IgG; Used soluble, coupled to Minileak beads, or Alexa647-labelled depending on the experiment; also called mAb 8C7; mAb8C7

- Kd [3]: 7.33 nM
- koff [3]: 0.00122 s⁻¹
- kon [3]: 166000 M⁻¹ s⁻¹
B2: hu8C7, fully humanised version of 8C7 (antibody, human IgG1, kappa, V domains shown)
VH: B1 VH with R13K, T41P, L70I, S76T, A85S, A87R, S91T, S115T
VL: DIVLTQSPAFMSVSPGERVSVSCRASQNIGTNIHWYQQRPDQSPRLLIKYASESISGIPSRFSGSGSGTDFYLTINSVESEDIAVYFCQQSNRWPFTFGSGTKLEVKR
notes: Human IgG1-kappa; humanised variable domains replaced the murine ones in the ch8C7 constructs; The exact V/C junction is not described; also called humanized 8C7

- Kd [3]: 6.71 nM
- koff [3]: 0.00105 s⁻¹
- kon [3]: 157000 M⁻¹ s⁻¹
B3: ch8C7, human and mouse chimerised version of mAb 8C7 (antibody, V domains shown)
VH: B1 VH
VL: B2 VL with V3F, F10N, V21F, P40T, D41N, Q42G, Y72I, T74S, S77T, K107I
notes: The exact V/C junction is not described; also called chimeric 8C7
